Measured values reported in the supplement of paper PMC9112550, “Optimization of the antimicrobial peptide Bac7 by deep mutational scanning” (BMC Biology, 2022).

These sequences were tested on Escherichia coli TOP10 (assay: shrunken log2 fold change of peptide-encoding DNA abundance (4.5 h post-induction vs induction); higher = less antimicrobial activity (less host growth inhibition)). Details: time post-induction: 4.5 h; library: site-saturation at positions 5, 18, 19, 20.
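Further: peptides expressed intracellularly from a pBAD plasmid library in pooled LB shake-flask culture, induced with 0.3% L-arabinose, DNA abundance read by NGS, three biological replicates, DESeq2 with apeglm shrinkage.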

| Sequence | shrunken log2 fold change |
| --- | --- |
| RRIRKRPPRLPRPRPRPCKLPRP | -0.144 |
| RRIRERPPRLPRPRPRPWFQPRP | -0.0883 |
| RRIRSRPPRLPRPRPRPELTPRP | 0.316 |
| RRIRGRPPRLPRPRPRPHWKPRP | 0.184 |
| RRIRSRPPRLPRPRPRPWRMPRP | -0.181 |
| RRIRDRPPRLPRPRPRPVMMPRP | -0.168 |
| RRIRHRPPRLPRPRPRPRAQPRP | 0.0972 |
| RRIRPRPPRLPRPRPRPTMDPRP | -0.125 |
| RRIRKRPPRLPRPRPRPKAHPRP | 0.242 |
| RRIRFRPPRLPRPRPRPFFIPRP | -0.429 |
| RRIRNRPPRLPRPRPRPIRDPRP | 0.201 |
| RRIRDRPPRLPRPRPRPRHNPRP | -0.548 |
| RRIRQRPPRLPRPRPRPRRNPRP | 0.327 |
| RRIRRRPPRLPRPRPRPCQMPRP | 0.0273 |
| RRIRMRPPRLPRPRPRPTQSPRP | 1.03 |
| RRIRPRPPRLPRPRPRPTYEPRP | 0.0844 |
| RRIRRRPPRLPRPRPRPFCRPRP | 0.551 |
| RRIRPRPPRLPRPRPRPKWRPRP | 0.0676 |
| RRIRKRPPRLPRPRPRPWTQPRP | 0.0628 |
| RRIRTRPPRLPRPRPRPDITPRP | -0.236 |
| RRIRKRPPRLPRPRPRPLVQPRP | 0.459 |
| RRIRNRPPRLPRPRPRPHKHPRP | -0.719 |
| RRIRHRPPRLPRPRPRPGFSPRP | -0.236 |
| RRIRGRPPRLPRPRPRPWTMPRP | 0.033 |
| RRIRERPPRLPRPRPRPNKNPRP | 0.0755 |

| Sequence | shrunken log2 fold change |
| --- | --- |
| RRIRIRPPRLPRPRPRPFDGPRP | -0.262 |
| RRIRFRPPRLPRPRPRPNSGPRP | -0.166 |
| RRIRIRPPRLPRPRPRPVWHPRP | -0.413 |
| RRIRARPPRLPRPRPRPNACPRP | -0.175 |
| RRIRMRPPRLPRPRPRPDDLPRP | 2.58 |
| RRIRERPPRLPRPRPRPTHIPRP | -0.924 |
| RRIRYRPPRLPRPRPRPKSYPRP | -0.101 |
| RRIRKRPPRLPRPRPRPNIVPRP | 0.135 |
| RRIRCRPPRLPRPRPRPKKNPRP | 0.24 |
| RRIRSRPPRLPRPRPRPFHNPRP | -0.0339 |
| RRIRLRPPRLPRPRPRPTDPPRP | 0.187 |
| RRIRERPPRLPRPRPRPRSNPRP | -0.0433 |
| RRIRCRPPRLPRPRPRPRYHPRP | -0.685 |
| RRIRFRPPRLPRPRPRPINMPRP | -0.319 |
| RRIRRRPPRLPRPRPRPTWDPRP | 0.19 |
| RRIRHRPPRLPRPRPRPPSRPRP | 0.17 |
| RRIRIRPPRLPRPRPRPSHQPRP | 0.0866 |
| RRIRKRPPRLPRPRPRPERDPRP | 0.621 |
| RRIRFRPPRLPRPRPRPWCIPRP | -0.369 |
| RRIRERPPRLPRPRPRPHNNPRP | 0.486 |
| RRIRKRPPRLPRPRPRPKPLPRP | 0.687 |
| RRIRRRPPRLPRPRPRPVRDPRP | 0.718 |
| RRIRSRPPRLPRPRPRPRPLPRP | 0.171 |
| RRIRDRPPRLPRPRPRPDKLPRP | -0.0536 |
| RRIRHRPPRLPRPRPRPLMQPRP | -0.248 |

| Sequence | shrunken log2 fold change |
| --- | --- |
| RRIRIRPPRLPRPRPRPTIHPRP | -0.592 |
| RRIRTRPPRLPRPRPRPNTTPRP | -0.164 |
| RRIRVRPPRLPRPRPRPNAHPRP | 0.038 |
| RRIRERPPRLPRPRPRPAFEPRP | -0.0208 |
| RRIRSRPPRLPRPRPRPHQPPRP | -0.00655 |
| RRIRWRPPRLPRPRPRPMVMPRP | -0.0614 |
| RRIRRRPPRLPRPRPRPFCVPRP | 1.05 |
| RRIRYRPPRLPRPRPRPAWEPRP | 1.86 |
| RRIRARPPRLPRPRPRPHYFPRP | 0.0061 |
| RRIRERPPRLPRPRPRPGVGPRP | 0.428 |
| RRIRIRPPRLPRPRPRPRGNPRP | -0.0419 |
| RRIRDRPPRLPRPRPRPQSCPRP | -0.0045 |
| RRIRWRPPRLPRPRPRPYCRPRP | -0.295 |
| RRIRSRPPRLPRPRPRPWFSPRP | -0.544 |
| RRIRSRPPRLPRPRPRPDEQPRP | 0.202 |
| RRIRRRPPRLPRPRPRPCSEPRP | -0.0216 |
| RRIRIRPPRLPRPRPRPPKGPRP | 0.0681 |
| RRIRHRPPRLPRPRPRPTAWPRP | 0.0946 |
| RRIRGRPPRLPRPRPRPPHAPRP | 1.37 |
| RRIRQRPPRLPRPRPRPGYSPRP | -0.00603 |
| RRIRDRPPRLPRPRPRPSDWPRP | 0.137 |
| RRIRGRPPRLPRPRPRPGECPRP | 0.959 |
| RRIRARPPRLPRPRPRPHPRPRP | 0.696 |
| RRIRVRPPRLPRPRPRPHCSPRP | -0.0738 |
| RRIRFRPPRLPRPRPRPVIMPRP | -0.297 |

| Sequence | shrunken log2 fold change |
| --- | --- |
| RRIRNRPPRLPRPRPRPQEMPRP | -0.218 |
| RRIRDRPPRLPRPRPRPMGWPRP | 0.476 |
| RRIRQRPPRLPRPRPRPRHHPRP | 0.0815 |
| RRIRCRPPRLPRPRPRPSPYPRP | -0.302 |
| RRIRERPPRLPRPRPRPSDDPRP | -0.0902 |
| RRIRSRPPRLPRPRPRPCQFPRP | -0.0444 |
| RRIRRRPPRLPRPRPRPCKPPRP | 0.151 |
| RRIRQRPPRLPRPRPRPYEMPRP | -0.153 |
| RRIRHRPPRLPRPRPRPLGHPRP | -0.499 |
| RRIRKRPPRLPRPRPRPKINPRP | -0.116 |
| RRIRCRPPRLPRPRPRPDDWPRP | 0.104 |
| RRIRPRPPRLPRPRPRPPEKPRP | 0.544 |
| RRIRGRPPRLPRPRPRPRCYPRP | 0.555 |
| RRIRSRPPRLPRPRPRPWLRPRP | -0.241 |
| RRIRVRPPRLPRPRPRPPFCPRP | 1.39 |
| RRIRTRPPRLPRPRPRPDATPRP | 0.823 |
| RRIRSRPPRLPRPRPRPIQNPRP | -0.119 |
| RRIRLRPPRLPRPRPRPYQNPRP | -0.0985 |
| RRIRPRPPRLPRPRPRPPRNPRP | 0.315 |
| RRIRSRPPRLPRPRPRPEFLPRP | 0.278 |
| RRIRNRPPRLPRPRPRPKGLPRP | -0.00227 |
| RRIRFRPPRLPRPRPRPRHIPRP | -0.439 |
| RRIRSRPPRLPRPRPRPPNWPRP | 0.504 |
| RRIRDRPPRLPRPRPRPCVSPRP | 0.0278 |
| RRIRMRPPRLPRPRPRPYKNPRP | -0.259 |

| Sequence | shrunken log2 fold change |
| --- | --- |
| RRIRARPPRLPRPRPRPCERPRP | -0.00198 |
| RRIRLRPPRLPRPRPRPEYQPRP | -0.0351 |
| RRIRPRPPRLPRPRPRPCKKPRP | -0.0659 |
| RRIRTRPPRLPRPRPRPIEVPRP | 0.131 |
| RRIRYRPPRLPRPRPRPITAPRP | -0.00947 |
| RRIRWRPPRLPRPRPRPQFTPRP | -0.313 |
| RRIRQRPPRLPRPRPRPGERPRP | 0.0849 |
| RRIRERPPRLPRPRPRPNEDPRP | -0.151 |
| RRIRFRPPRLPRPRPRPAKPPRP | 0.901 |
| RRIRGRPPRLPRPRPRPFTCPRP | -0.22 |
| RRIRTRPPRLPRPRPRPKTPPRP | -0.0565 |
| RRIRIRPPRLPRPRPRPMFWPRP | -0.128 |
| RRIRERPPRLPRPRPRPKLPPRP | 0.0983 |
| RRIRYRPPRLPRPRPRPGIFPRP | -0.708 |
| RRIRCRPPRLPRPRPRPFFNPRP | -0.687 |
| RRIRERPPRLPRPRPRPDCEPRP | -0.0494 |
| RRIRNRPPRLPRPRPRPFDDPRP | -0.00192 |
| RRIRWRPPRLPRPRPRPTCHPRP | 0.228 |
| RRIRNRPPRLPRPRPRPILLPRP | -0.103 |
| RRIRARPPRLPRPRPRPSPFPRP | 0.0195 |
| RRIRNRPPRLPRPRPRPAVTPRP | 0.0989 |
| RRIRCRPPRLPRPRPRPDFEPRP | -0.0276 |
| RRIRERPPRLPRPRPRPHWWPRP | 0.193 |
| RRIRFRPPRLPRPRPRPYIKPRP | -1.28 |
| RRIRGRPPRLPRPRPRPQTLPRP | 0.614 |

| Sequence | shrunken log2 fold change |
| --- | --- |
| RRIRARPPRLPRPRPRPILFPRP | -0.166 |
| RRIRTRPPRLPRPRPRPETWPRP | -0.0622 |
| RRIRPRPPRLPRPRPRPLYNPRP | -0.623 |
| RRIRQRPPRLPRPRPRPEQGPRP | 0.0169 |
| RRIRWRPPRLPRPRPRPDIDPRP | 0.546 |
| RRIRDRPPRLPRPRPRPPFIPRP | -0.533 |
| RRIRDRPPRLPRPRPRPFLPPRP | -0.358 |
| RRIRCRPPRLPRPRPRPESSPRP | -0.16 |
| RRIRIRPPRLPRPRPRPGATPRP | -0.0576 |
| RRIRVRPPRLPRPRPRPTLDPRP | 0.125 |
| RRIRYRPPRLPRPRPRPDSVPRP | -0.338 |
| RRIRKRPPRLPRPRPRPAQCPRP | -0.0613 |
| RRIRIRPPRLPRPRPRPFLCPRP | -0.628 |
| RRIRQRPPRLPRPRPRPDVWPRP | -0.0325 |
| RRIRLRPPRLPRPRPRPTDNPRP | -0.391 |
| RRIRNRPPRLPRPRPRPTSLPRP | -0.0597 |
| RRIRSRPPRLPRPRPRPFTLPRP | -0.163 |
| RRIRQRPPRLPRPRPRPYYVPRP | -0.0108 |
| RRIRARPPRLPRPRPRPSSQPRP | 0.144 |
| RRIRARPPRLPRPRPRPLWSPRP | 0.263 |
| RRIRFRPPRLPRPRPRPHPAPRP | 0.0971 |
| RRIRIRPPRLPRPRPRPPTNPRP | 0.0455 |
| RRIRVRPPRLPRPRPRPCREPRP | -0.0897 |
| RRIRRRPPRLPRPRPRPWKKPRP | -0.0288 |
| RRIRCRPPRLPRPRPRPKRRPRP | 0.0984 |
